Source: patent publication US20260085105A1 (Amgen, published 2026)

How the values were obtained:
… (MAGEA8)/HLA-A*02:01 = … (MAGEA8)/HLA-A*02:01 (human); assay: cell-based or functional assay
[1] = target: T1, HERC4 peptide on HLA-A*02:01 (human); assay: killing
T1 peptide: KVLEILHRV

[2] = target: T2, PSME2 peptide on HLA-A*02:01 (human); assay: killing
T2 peptide: KVLERVNAV

[3] = target: T3, TP2 peptide on HLA-A*02:01 (human); assay: killing
T3 peptide: KILEDVVGV

[4] = target: T4, HTR5A peptide on HLA-A*02:01 (human); assay: killing
T4 peptide: KVLETLVTV

[5] = target: T5, RG1L peptide on HLA-A*02:01 (human); assay: killing
T5 peptide: FLLETVVRV

[6] = target: T6, CNOT1 peptide on HLA-A*02:01 (human); assay: killing
T6 peptide: KVLGIVVGV

[7] = target: T7, ATAD2 peptide on HLA-A*02:01 (human); assay: killing
T7 peptide: KILEALQRV

[8] = target: T8, GPC5 peptide on HLA-A*02:01 (human); assay: killing
T8 peptide: KLLEQVNRI

[9] = target: T9, MIA3 peptide on HLA-A*02:01 (human); assay: killing
T9 peptide: KVLDKVFRA

[10] = target: T10, SYNE3 peptide on HLA-A*02:01 (human); assay: killing
T10 peptide: KLLDLQVRV

[11] = target: T11, ANO5 peptide on HLA-A*02:01 (human); assay: killing
T11 peptide: IVMEHVVFL

[12] = target: T12, AXIN1 peptide on HLA-A*02:01 (human); assay: killing
T12 peptide: ILDEHVQRV

[13] = target: T13, GRP78 peptide on HLA-A*02:01 (human); assay: killing
T13 peptide: KVTHAVVTV

[14] = target: T14, PTRF peptide on HLA-A*02:01 (human); assay: killing
T14 peptide: KLLEKVRKV

[15] = target: T15, TRMT1L peptide on HLA-A*02:01 (human); assay: killing
T15 peptide: VALEHFVLV

[16] = target: T16, KIAA1033 peptide on HLA-A*02:01 (human); assay: killing
T16 peptide: KVLNKVITV

[17] = target: T17, NSD1 peptide on HLA-A*02:01 (human); assay: killing
T17 peptide: KVQEQVHKV

[18] = target: T18, HNRNPR peptide on HLA-A*02:01 (human); assay: killing
T18 peptide: KVWGNVVTV

[19] = target: T19, TSC1 peptide on HLA-A*02:01 (human); assay: killing
T19 peptide: SLLGHVIRL

[20] = target: T20, MADD peptide on HLA-A*02:01 (human); assay: killing
T20 peptide: ILLEHKVVL

[21] = target: T21, MAGE-A4 (100% identical in MAGEA8) peptide on HLA-A*02:01 (human); assay: multimer staining
T21 peptide: KVLEHVVRV

[22] = target: T22, AK2 peptide on HLA-A*02:01 (human); assay: killing
T22 peptide: FLLDGFPRTV

[23] = target: T23, COX14 peptide on HLA-A*02:01 (human); assay: killing
T23 peptide: TVYGGYLCSV

[24] = target: T24, DDAH peptide on HLA-A*02:01 (human); assay: killing
T24 peptide: VLFTGREFFV

[25] = target: T25, ACTB peptide on HLA-A*02:01 (human); assay: killing
T25 peptide: DSGDGVTHTV

[26] = target: T26, OSBPL10 peptide on HLA-A*02:01 (human); assay: killing
T26 peptide: SQYSGQLHEV

[27] = target: T27, PGRMC1 peptide on HLA-A*02:01 (human); assay: killing
T27 peptide: LLKEGEEPTV

[28] = target: T28, VPS13B peptide on HLA-A*02:01 (human); assay: killing
T28 peptide: GLMDGSPHFL

[29] = target: T29, ATOH8 peptide on HLA-A*02:01 (human); assay: killing
T29 peptide: VLEDGPWKTV

[30] = target: T30, FAS peptide on HLA-A*02:01 (human); assay: killing
T30 peptide: ALLDGRLQVV

[31] = target: T31, PLD4 peptide on HLA-A*02:01 (human); assay: killing
T31 peptide: GLFDGVPTTA

[32] = target: T32, IMPDH1 peptide on HLA-A*02:01 (human); assay: killing
T32 peptide: IIADGGIQTV

[33] = target: T33, XIAP peptide on HLA-A*02:01 (human); assay: killing
T33 peptide: FLYTGEGTV

[34] = target: T34, UTRN peptide on HLA-A*02:01 (human); assay: killing
T34 peptide: NQWDGTQHGV

[35] = target: T35, DPYSL4 peptide on HLA-A*02:01 (human); assay: killing
T35 peptide: GLYDGPVHEV

[36] = target: T36, DPYSL2 peptide on HLA-A*02:01 (human); assay: killing
T36 peptide: GLYDGPVCEV

[37] = target: T37, MYOF peptide on HLA-A*02:01 (human); assay: killing
T37 peptide: FFVYDEPGHAV

[38] = target: T38, CDNP2 peptide on HLA-A*02:01 (human); assay: killing
T38 peptide: GVYGGSVHEA

[39] = target: T39, KEAP1 peptide on HLA-A*02:01 (human); assay: killing
T39 peptide: GVIDGHIYAV

[40] = target: T40, DYNC1H1 peptide on HLA-A*02:01 (human); assay: killing
T40 peptide: FLSDPQVHTV

[41] = target: T41, STXBP5 peptide on HLA-A*02:01 (human); assay: killing
T41 peptide: YTYDEAIHSV

[42] = target: T42, MAGE-A4 peptide on HLA-A*02:01 (human); assay: multimer staining
T42 peptide: GVYDGREHTV

B1: TCR18 (running number 7 of Table 1A) (TCR, V domains shown)
V domain 1: AQTVTQSQPEMSVQEAETVTLSCTYDTSENNYYLFWYKQPPSRQMILVIRQEAYKQQNATENRFSVNFQKAAKSFSLKISDSQLGDTAMYFCALLDSGNTPLVFGKGTRLSVIA
V domain 2: NAGVTQTPKFRILKIGQSMTLQCAQDMNHNYMYWYRQDPGMGLKLIYYSVGAGITDKGEVPNGYNVSRSTTEDFPLRLELAAPSQTSVYFCASSYTNNEQFFGPGTRLTVLE
fold difference in EC50 between the MAGEA4 and MAGEA8 peptides, TDCC on peptide-loaded T2 cells (… (MAGEA8)/HLA-A*02:01): > 1000 fold

B2: TCR4 (TCR10) (TCR, V domains shown)
Valpha: LAKTTQPISMDSYEGQEVNITCSHNNIATNDYITWYQQFPSQGPRFIIQGYKTKVTNEVASLFIPADRKSSTLSLPRVSLSDTAVYYCLVGGDEDMRFGAGTRLTVKP
Vbeta: EAGVAQSPRYKIIEKRQSVAFWCNPISGHATLYWYQQILGQGPKLLIQFQNNGVVDDSQLPKDRFSAERLKGVDSTLKIQPAKLEDSAVYLCASSLEYGPTYEQYFGPGTRLTVT
binding result [1]: no recognition | binding result [2]: no recognition | binding result [3]: no recognition | binding result [4]: no recognition | binding result [5]: no recognition | binding result [6]: no recognition | binding result [7]: no recognition | binding result [8]: no recognition | binding result [9]: no recognition | binding result [10]: no recognition | binding result [11]: no recognition | binding result [12]: no recognition | binding result [13]: no recognition | binding result [14]: no recognition | binding result [15]: no recognition | binding result [16]: no recognition | binding result [17]: no recognition | binding result [18]: no recognition | binding result [19]: no recognition | binding result [20]: no recognition | binding result [21]: recognises

B3: TCR6 of Tables 1A and 1B (TCR7 of the examples) (TCR, V domains shown)
Valpha: AQTVTQSQPEMSVQEAETVTLSCTYDTSENNYYLFWYKQPPSRQMILVIRQEAYKQQNATENRFSVNFQKAAKSFSLKISDSQLGDTAMYFCAFVDSGYALNFGKGTSLLVTP
Vbeta: DVKVTQSSRYLVKRTGEKVFLECVQDMDHENMFWYRQDPGLGLRLIYFSYDVKMKEKGDIPEGYSVSREKKERFSLILESASTNQTSMYLCASSLDGARTQYFGPGTRLTVL
binding result [1]: no recognition | binding result [2]: no recognition | binding result [3]: no recognition | binding result [4]: no recognition | binding result [5]: no recognition | binding result [6]: no recognition | binding result [7]: no recognition | binding result [8]: no recognition | binding result [9]: no recognition | binding result [10]: no recognition | binding result [11]: no recognition | binding result [12]: no recognition | binding result [13]: no recognition | binding result [14]: no recognition | binding result [15]: no recognition | binding result [16]: no recognition | binding result [17]: no recognition | binding result [18]: no recognition | binding result [19]: no recognition | binding result [20]: no recognition | binding result [21]: recognises

B4: TCR7 of Tables 1A and 1B (TCR18) (TCR, V domains shown)
Valpha: B1 V domain 1
Vbeta: NAGVTQTPKFRILKIGQSMTLQCAQDMNHNYMYWYRQDPGMGLKLIYYSVGAGITDKGEVPNGYNVSRSTTEDFPLRLELAAPSQTSVYFCASSYTNNEQFFGPGTRLTVL
binding result [22]: no recognition | binding result [23]: no recognition | binding result [24]: no recognition | binding result [25]: no recognition | binding result [26]: no recognition | binding result [27]: no recognition | binding result [28]: no recognition | binding result [29]: no recognition | binding result [30]: no recognition | binding result [31]: no recognition | binding result [32]: no recognition | binding result [33]: no recognition | binding result [34]: no recognition | binding result [35]: no recognition | binding result [36]: no recognition | binding result [37]: no recognition | binding result [38]: no recognition | binding result [39]: no recognition | binding result [40]: no recognition | binding result [41]: no recognition | binding result [42]: recognises

B5: TCR8 of Tables 1A and 1B (printed TCR18) (TCR, V domains shown)
Valpha: KQEVTQIPAALSVPEGENLVLNCSFTDSAIYNLQWFRQDPGKGLTSLLLIQSSQREQTSGRLNASLDKSSGRSTLYIAASQPGDSATYLCAVDAHARLMFGDGTQLVVKP
Vbeta: EPEVTQTPSHQVTQMGQEVILRCVPISNHLYFYWYRQILGQKVEFLVSFYNNEISEKSEIFDDQFSVERPDGSNFTLKIRSTKLEDSAMYFCASISGEQYFGPGTRLTVT
binding result [22]: no recognition | binding result [23]: no recognition | binding result [24]: no recognition | binding result [25]: no recognition | binding result [26]: no recognition | binding result [27]: no recognition | binding result [28]: no recognition | binding result [29]: no recognition | binding result [30]: no recognition | binding result [31]: no recognition | binding result [32]: no recognition | binding result [33]: no recognition | binding result [34]: no recognition | binding result [35]: no recognition | binding result [36]: no recognition | binding result [37]: no recognition | binding result [38]: no recognition | binding result [39]: no recognition | binding result [40]: no recognition | binding result [41]: no recognition | binding result [42]: recognises
